Measured values published in the supplement of paper PMC7877785.
± gives the uncertainty stated by the source.

Test: self-splicing fitness, log relative to wild type (ln ratio); higher = more splicing; Tetrahymena group I intron in knt gene, E. coli kanamycin selection, DiMSum; sequences stand for … in CUCUCU…GGAGGGAAAAGUUAUCAGGCAUGCACCUGGUAGCUAGUCUUUAAACCAAUAGAUUGCAUCGGUUUAAAAGGCAAGACCGUCAAAUUGCGGGAAAGGGGUCAACAGCCGUUCAGUACCAAGUCUCAGGGGAAACUUUGAGAUGGCCUUGCAAAGGGUAUGGUAAUAAGCUGACGGACAUGGUCCUAACCACGCAGCCAAGUCCUAAGUCAACAGAUCUUCUGUUGAUAUGGAUGCAGUUCACAGACUAAAUGUCGGUCGGGGAAGAUGUAUUCUUCUCAUAAGAUAUAGUCGGACCUCUCCUUAAUGGGAGCUAGCGGAUGAAGUGAUGCAACACUGGAGCCGCUGGGAACUAAUUUGUAUGCGAAAGUAUAUUGAUUAGUUUUGGAGUACUCGUGGUCG
Summary of the method: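 The eight P1ex-region nucleotides of an intron in the knt kanamycin-resistance gene on pET-22b(+) were all randomised and the library put into E. coli BL21(DE3). Six replicate transformations were grown overnight at 37°C or 30°C on LB agar with or without 25 μg/mL kanamycin, together with 100 μg/mL carbenicillin, 50 μM IPTG and 0.2% rhamnose. Colonies were pooled and amplicon-sequenced on an Illumina HiSeq 2500. Fitness from DiMSum is the error-weighted combination of wild-type-normalised replicate fold changes, kanamycin over none.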

Sequence	self-splicing fitness (ln) (37 °C)	self-splicing fitness (ln) (30 °C)
UCUUAGCAAUAUUACGAGUC	-2.22 ± 0.36	
UCUUAGCAAUAUUACGCAAA	-2.31 ± 0.29	-1.56 ± 0.32
UCUUAGCAAUAUUACGCAAU	-2.53 ± 0.36	
UCUUAGCAAUAUUACGCCGU	-0.32 ± 0.17	-2.05 ± 0.16
UCUUAGCAAUAUUACGCCUA	-2.71 ± 0.41	
UCUUAGCAAUAUUACGCGUA	-1.38 ± 0.15	-3.4 ± 0.24
UCUUAGCAAUAUUACGCUCU	-1.61 ± 0.29	-1.99 ± 0.24
UCUUAGCAAUAUUACGGAAC	-1.99 ± 0.43	-0.987 ± 0.34
UCUUAGCAAUAUUACGGAGG	-2.17 ± 0.31	-2.67 ± 0.34
UCUUAGCAAUAUUACGGCAA	-1.57 ± 0.37	
UCUUAGCAAUAUUACGGGAG	-2.41 ± 0.35	-2.63 ± 0.49
UCUUAGCAAUAUUACGGUAA	-1.7 ± 0.32	-2.62 ± 0.23
UCUUAGCAAUAUUACGGUAC	-2.51 ± 0.48	-3.68 ± 0.41
UCUUAGCAAUAUUACGGUCG	-1.37 ± 0.33	-0.895 ± 0.16
UCUUAGCAAUAUUACGGUGU	-1.23 ± 0.12	-2.83 ± 0.12
UCUUAGCAAUAUUACGGUUU	-1.77 ± 0.2	-3.61 ± 0.22
UCUUAGCAAUAUUACGUAGA	-0.474 ± 0.18	-1.15 ± 0.21
UCUUAGCAAUAUUACGUGCU	-2.37 ± 0.48	-3.12 ± 0.38
UCUUAGCAAUAUUACGUGUU	-2.3 ± 0.25	-2.67 ± 0.15
UCUUAGCAAUAUUACGUUCA	-1.85 ± 0.11	-2.92 ± 0.14
UCUUAGCAAUAUUACGUUGC		-3.46 ± 0.47
UGAAAGCAAUAUUACGAACC	-1.16 ± 0.22	-1.55 ± 0.17
UGAAAGCAAUAUUACGACUA	0.139 ± 0.11	-0.403 ± 0.08
UGAAAGCAAUAUUACGAGCG	-0.171 ± 0.085	0.46 ± 0.072
UGAAAGCAAUAUUACGAGGG	-3.6 ± 0.42	-2.91 ± 0.17

Sequence	self-splicing fitness (ln) (37 °C)	self-splicing fitness (ln) (30 °C)
UGAAAGCAAUAUUACGAUUG	-0.573 ± 0.14	-0.872 ± 0.11
UGAAAGCAAUAUUACGCGCC	-0.728 ± 0.23	-0.832 ± 0.21
UGAAAGCAAUAUUACGCUUA	-0.254 ± 0.17	-1.26 ± 0.17
UGAAAGCAAUAUUACGGAAA	-1.29 ± 0.17	-1.83 ± 0.18
UGAAAGCAAUAUUACGGAGA	-2.54 ± 0.23	-3.09 ± 0.2
UGAAAGCAAUAUUACGGAUU	-1.09 ± 0.18	-1.99 ± 0.17
UGAAAGCAAUAUUACGGCAG	-0.105 ± 0.11	-0.742 ± 0.094
UGAAAGCAAUAUUACGGGAA	-1.62 ± 0.12	-2.6 ± 0.14
UGAAAGCAAUAUUACGGGUG	-0.399 ± 0.069	-0.621 ± 0.051
UGAAAGCAAUAUUACGGUCU	-0.209 ± 0.085	-0.0503 ± 0.077
UGAAAGCAAUAUUACGGUGC	-2.61 ± 0.36	-2.02 ± 0.38
UGAAAGCAAUAUUACGGUUA	-0.217 ± 0.064	-0.156 ± 0.07
UGAAAGCAAUAUUACGUAGC	-1.5 ± 0.36	-3.52 ± 0.37
UGAAAGCAAUAUUACGUCAU	-1.77 ± 0.14	-4.25 ± 0.22
UGAAAGCAAUAUUACGUCGA	-0.374 ± 0.1	-0.893 ± 0.08
UGAAAGCAAUAUUACGUCUA	0.146 ± 0.11	-0.288 ± 0.12
UGAAAGCAAUAUUACGUGAC	-2.01 ± 0.17	-3.86 ± 0.29
UGAAAGCAAUAUUACGUGGG	-2.4 ± 0.17	-3.67 ± 0.2
UGAAAGCAAUAUUACGUGGU	-2.55 ± 0.23	-3.22 ± 0.17
UGACAGCAAUAUUACGAACC	-1.37 ± 0.22	-2.97 ± 0.25
UGACAGCAAUAUUACGACGC	-1.25 ± 0.19	-1.83 ± 0.13
UGACAGCAAUAUUACGACUA	0.416 ± 0.1	-0.585 ± 0.087
UGACAGCAAUAUUACGCAUU	-2.4 ± 0.14	-3.85 ± 0.18
UGACAGCAAUAUUACGCCAC	-1.43 ± 0.27	-3.66 ± 0.32
UGACAGCAAUAUUACGCCAU	-1.51 ± 0.26	-3.25 ± 0.29

Sequence	self-splicing fitness (ln) (37 °C)	self-splicing fitness (ln) (30 °C)
UGACAGCAAUAUUACGCGAG	-2.06 ± 0.077	-2.36 ± 0.11
UGACAGCAAUAUUACGCGCA	0.187 ± 0.077	-0.495 ± 0.072
UGACAGCAAUAUUACGCGUU	-2.75 ± 0.17	-3.69 ± 0.16
UGACAGCAAUAUUACGGAUA	-0.669 ± 0.11	-1.25 ± 0.095
UGACAGCAAUAUUACGGCAG	0.0375 ± 0.079	-0.0451 ± 0.065
UGACAGCAAUAUUACGGGCU	-1.57 ± 0.097	-2.75 ± 0.16
UGACAGCAAUAUUACGGGGU	-2.38 ± 0.23	-4.41 ± 0.31
UGACAGCAAUAUUACGGGUA	-0.216 ± 0.062	-1.07 ± 0.055
UGACAGCAAUAUUACGGUAA	-0.692 ± 0.11	-1.85 ± 0.12
UGACAGCAAUAUUACGGUUA	-0.364 ± 0.065	-0.746 ± 0.073
UGACAGCAAUAUUACGUAAC	-2.38 ± 0.19	-4.4 ± 0.46
UGACAGCAAUAUUACGUCCC	-1.51 ± 0.36	-0.969 ± 0.17
UGACAGCAAUAUUACGUCCG	-0.342 ± 0.13	-0.00105 ± 0.12
UGACAGCAAUAUUACGUUCG	-0.194 ± 0.075	-0.885 ± 0.068
UGAGAGCAAUAUUACGAAAG	-2.86 ± 0.25	-5.04 ± 0.28
UGAGAGCAAUAUUACGACUC	-2.73 ± 0.45	-2.96 ± 0.47
UGAGAGCAAUAUUACGAGAC	-2.59 ± 0.29	-4.44 ± 0.46
UGAGAGCAAUAUUACGAGAG	-1.16 ± 0.36	
UGAGAGCAAUAUUACGAGUG	-2.93 ± 0.26	-4.04 ± 0.29
UGAGAGCAAUAUUACGAUGA	-2.48 ± 0.3	
UGAGAGCAAUAUUACGCGGA	-1.49 ± 0.46	-3.34 ± 0.47
UGAGAGCAAUAUUACGCUGA	-1.53 ± 0.28	-2.42 ± 0.32
UGAGAGCAAUAUUACGGCGA	-0.434 ± 0.23	-3.53 ± 0.34
UGAGAGCAAUAUUACGGGCU	-2.6 ± 0.38	-2.32 ± 0.37
UGAGAGCAAUAUUACGGUCA	-0.589 ± 0.13	-0.647 ± 0.1

Sequence	self-splicing fitness (ln) (37 °C)	self-splicing fitness (ln) (30 °C)
UGAGAGCAAUAUUACGUAAA	-2.43 ± 0.45	-4.31 ± 0.39
UGAGAGCAAUAUUACGUAAU	-2.22 ± 0.26	-3.22 ± 0.21
UGAGAGCAAUAUUACGUAGU	-2.41 ± 0.36	-2.29 ± 0.24
UGAGAGCAAUAUUACGUAUG	-1.66 ± 0.22	-1.55 ± 0.13
UGAGAGCAAUAUUACGUGUG	-2.28 ± 0.12	-2.9 ± 0.14
UGAGAGCAAUAUUACGUUAG	-3.31 ± 0.4	-3.68 ± 0.37
UGAGAGCAAUAUUACGUUCC	-2.11 ± 0.47	
UGAGAGCAAUAUUACGUUCU	-2.03 ± 0.27	-3.3 ± 0.25
UGAGAGCAAUAUUACGUUGU	-2.91 ± 0.23	-3.89 ± 0.19
UGAUAGCAAUAUUACGAACG	-0.0562 ± 0.2	-0.462 ± 0.15
UGAUAGCAAUAUUACGAAGG	-2.26 ± 0.2	-2.96 ± 0.15
UGAUAGCAAUAUUACGACAC	-2.22 ± 0.45	
UGAUAGCAAUAUUACGACUA	0.407 ± 0.17	-0.635 ± 0.13
UGAUAGCAAUAUUACGAGAU	-1.92 ± 0.3	-3.87 ± 0.43
UGAUAGCAAUAUUACGAUAG	-0.505 ± 0.32	-0.826 ± 0.28
UGAUAGCAAUAUUACGCAAU	-1.62 ± 0.36	-2.87 ± 0.49
UGAUAGCAAUAUUACGCAUU	-2.11 ± 0.17	-2.52 ± 0.17
UGAUAGCAAUAUUACGCCAU	-3.2 ± 0.3	-2.82 ± 0.26
UGAUAGCAAUAUUACGCGAG	-0.803 ± 0.13	-1.66 ± 0.17
UGAUAGCAAUAUUACGCGCA	0.2 ± 0.1	-0.408 ± 0.091
UGAUAGCAAUAUUACGCGCU	-0.36 ± 0.14	-0.577 ± 0.11
UGAUAGCAAUAUUACGGCCC	-0.72 ± 0.42	-2.82 ± 0.48
UGAUAGCAAUAUUACGGCGU	-1.22 ± 0.16	-2.1 ± 0.18
